Test results from publication PMC5268773.
Read-outs that look alike come from different tables or passages of the source.

Tests used:
[1] = target: fibrin (purified fibrin clots) (UniProt P02671)
[2] = target: plasminogen (Homo sapiens) (UniProt P00747); details: cited from earlier work
plasmin (Homo sapiens) [3] = target: plasmin (Homo sapiens) (UniProt P00747); details: cited from earlier work
plasmin (Homo sapiens) [4] = target: plasmin (Homo sapiens) (UniProt P00747); assay: SPR; details: cited from earlier work

Chain of streptokinase (P10520 27-440): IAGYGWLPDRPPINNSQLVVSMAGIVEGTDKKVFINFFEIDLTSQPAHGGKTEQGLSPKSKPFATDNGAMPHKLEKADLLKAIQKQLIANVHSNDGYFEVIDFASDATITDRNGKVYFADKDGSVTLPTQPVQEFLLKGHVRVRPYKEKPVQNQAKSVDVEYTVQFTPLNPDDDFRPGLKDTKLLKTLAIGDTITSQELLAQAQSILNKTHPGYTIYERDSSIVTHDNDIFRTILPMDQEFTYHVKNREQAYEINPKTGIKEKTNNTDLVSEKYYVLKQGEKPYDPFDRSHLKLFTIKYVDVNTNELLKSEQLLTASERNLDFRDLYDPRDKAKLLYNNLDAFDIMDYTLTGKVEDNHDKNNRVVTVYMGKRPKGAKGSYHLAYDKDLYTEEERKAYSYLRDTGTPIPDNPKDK
Chain of UniProt P02671 (P02671 36-866, chain 1 of 3): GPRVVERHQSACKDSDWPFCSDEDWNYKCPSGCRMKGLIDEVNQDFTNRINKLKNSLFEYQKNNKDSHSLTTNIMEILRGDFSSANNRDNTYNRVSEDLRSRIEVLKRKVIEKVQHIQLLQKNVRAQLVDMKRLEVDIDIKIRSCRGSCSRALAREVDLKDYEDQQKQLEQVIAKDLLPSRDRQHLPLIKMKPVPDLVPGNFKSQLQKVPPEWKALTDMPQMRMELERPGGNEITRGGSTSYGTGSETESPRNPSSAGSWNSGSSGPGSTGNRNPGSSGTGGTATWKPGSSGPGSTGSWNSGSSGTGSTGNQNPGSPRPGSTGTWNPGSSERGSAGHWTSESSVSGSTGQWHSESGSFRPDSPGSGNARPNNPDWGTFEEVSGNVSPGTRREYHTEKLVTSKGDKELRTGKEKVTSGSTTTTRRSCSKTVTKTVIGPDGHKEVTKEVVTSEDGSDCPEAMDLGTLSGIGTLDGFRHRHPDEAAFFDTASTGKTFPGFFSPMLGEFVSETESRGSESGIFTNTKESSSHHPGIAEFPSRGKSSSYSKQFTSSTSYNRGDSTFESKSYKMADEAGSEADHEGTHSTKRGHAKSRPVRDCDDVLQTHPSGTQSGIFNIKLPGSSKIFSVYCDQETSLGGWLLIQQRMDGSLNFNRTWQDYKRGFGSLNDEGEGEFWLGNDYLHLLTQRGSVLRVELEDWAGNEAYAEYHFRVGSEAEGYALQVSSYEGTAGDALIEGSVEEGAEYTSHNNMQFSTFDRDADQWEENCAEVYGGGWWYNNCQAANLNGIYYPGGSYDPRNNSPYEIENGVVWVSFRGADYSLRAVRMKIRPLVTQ
Chain of UniProt P02671 (P02675 45-491, chain 2 of 3, further chain): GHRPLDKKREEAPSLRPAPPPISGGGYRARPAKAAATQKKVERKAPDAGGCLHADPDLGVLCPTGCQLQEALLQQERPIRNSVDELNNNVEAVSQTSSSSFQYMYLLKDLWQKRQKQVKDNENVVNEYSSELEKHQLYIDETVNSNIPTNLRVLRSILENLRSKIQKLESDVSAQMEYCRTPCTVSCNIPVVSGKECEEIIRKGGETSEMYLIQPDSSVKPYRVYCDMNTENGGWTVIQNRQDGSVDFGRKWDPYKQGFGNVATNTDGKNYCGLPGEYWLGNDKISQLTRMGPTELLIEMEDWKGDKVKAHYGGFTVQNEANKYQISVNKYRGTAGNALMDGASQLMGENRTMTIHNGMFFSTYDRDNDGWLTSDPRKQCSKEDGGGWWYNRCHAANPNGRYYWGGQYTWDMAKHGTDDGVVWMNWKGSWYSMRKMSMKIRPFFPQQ
Chain of UniProt P02671 (P02679 27-453, chain 3 of 3, further chain): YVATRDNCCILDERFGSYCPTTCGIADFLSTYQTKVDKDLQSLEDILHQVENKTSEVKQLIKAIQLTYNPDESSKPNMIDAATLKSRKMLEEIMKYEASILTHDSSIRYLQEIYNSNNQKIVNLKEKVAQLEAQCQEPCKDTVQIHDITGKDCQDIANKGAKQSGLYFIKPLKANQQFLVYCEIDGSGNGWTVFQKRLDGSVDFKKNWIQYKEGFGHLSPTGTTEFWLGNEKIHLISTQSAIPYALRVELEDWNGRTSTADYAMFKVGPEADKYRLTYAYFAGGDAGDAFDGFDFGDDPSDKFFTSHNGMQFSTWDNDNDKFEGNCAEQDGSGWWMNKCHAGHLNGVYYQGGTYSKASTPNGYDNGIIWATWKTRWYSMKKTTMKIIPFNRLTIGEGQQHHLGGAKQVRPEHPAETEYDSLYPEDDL

| Substance | IC50 of tranexamic acid (TA) for inhibition of Pgn activation by rSK-M1GAS in fibrin [1] | Kd [2] | Kd (plasmin (Homo sapiens) [3]) | Kd (plasmin (Homo sapiens) [4]) |
| --- | --- | --- | --- | --- |
| recombinant streptokinase from the M1 type group A streptococcus, Streptococcus pyogenes strain SF370 (rSK-M1GAS) (natural protein) | 133 µM |  |  |  |
| streptokinase (from UniProt P10520) |  | 6 nM | 0.3 nM | 0.5 nM |
